Source: patent US20050048548A1

Key:
[1] = biological target: MBP-BirA fusion (E. coli biotin ligase / biotin holoenzyme synthetase with N-terminal maltose binding protein) (E. coli) [MBP: P0AEX9]; assay: phage ELISA on plate-coated MBP-BirA, anti-M13-HRP detection; reference: same phage unmodified
streptavidin (Prozyme) [2] = biological target: streptavidin (Prozyme) (UniProt P22629); assay: phage ELISA on plate-coated streptavidin, both with and without 10 mM DTT; reference: Ser-Ser phage
streptavidin (Prozyme) [3] = biological target: streptavidin (Prozyme) (UniProt P22629); assay: phage ELISA on plate-coated streptavidin, anti-M13-HRP detection

Chain of streptavidin (Prozyme) (P22629 37-163 limits assumed): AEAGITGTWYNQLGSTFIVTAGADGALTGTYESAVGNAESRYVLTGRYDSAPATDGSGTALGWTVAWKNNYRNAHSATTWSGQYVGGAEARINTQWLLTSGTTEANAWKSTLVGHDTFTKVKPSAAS

Substance | fold increase of affinity, biotin-modified against unmodified phage [1] | other results
biotin-modified M13 phage clone displaying VTAKSecCYP (peptide) | 5 fold | –
biotin-modified M13 phage clone displaying VPKQSecCQN (peptide) | 5 fold | –
M13 phage displaying the selenosulfide constrained sequence Cys-HPQGPT-Sec (peptide) | – | tighter binding against the linear Ser-Ser sequence (orders of magnitude) (streptavidin (Prozyme) [2]): 2
M13 phage displaying the disulfide constrained sequence Cys-HPQGPP-Cys (peptide) | – | reduction of binding in 10 mM DTT against no DTT (orders of magnitude) (streptavidin (Prozyme) [3]): > 2
biotin-modified M13 phage clone displaying CLQPSecYGS (peptide) | 5 fold | –
